From USRE49583E1, “Inducible expression systems” (priority 2005, dated 2023) come the findings set out here.

The subject of the assay is chromosomally integrated CMV-7tetO luciferase reporter in HeLa X1/6 cells. The experiment in a line: rtTA activity assay, HeLa X1/6 cells with integrated CMV-7tetO luciferase reporter (Example 1, FIG. 2-3, 5, 14, 15). The class given is cell-based. To be noted: for rtTA activation by minocycline (Mc): 0-10000 ng/ml Mc; for rtTA activation by tetracycline (Tc): 0-10000 ng/ml Tc; for basal / background activity in the absence of inducer: no dox or other effector. The text has this:
To test whether this rtTA optimization reflects a specific adaptation to the viral LTR-2ΔtetO promoter, we assayed rtTA activity with a reporter gene construct in which luciferase expression is under the control of a minimal CMV promoter coupled to an array of seven tetO elements. […] Thus, the observed mutations in rtTA are not virus-specific adaptations, but are general improvements of the Tet-on system. We also assayed rtTA activity in HeLa X1/6 cells that contain chromosomally integrated copies of the CMV-7tetO luciferase reporter construct (FIG. 2C). In these cells, the evolved rtTAs show a similar pattern of activity as with episomal reporter gene constructs in C33A cells. Thus, these mutations improve rtTA activity independent of the type of promoter and the episomal or chromosomal status of the target gene.
The V10 variant needs only 44 ng/ml dox to reach this activity level, which reflects a 23-fold higher dox-sensitivity than the wild-type rtTA.
rtTA activity assay. Two firefly luciferase reporter constructs with different promoter configurations were used. pLTR-2ΔtetO-luc contains the LTR-2ΔtetO promoter derived from the HIV-rtTA molecular clone (Marzio et al. 2001; Marzio et al. 2002). pCMV-7tetO-luc, previously named pUHC13-3 (Gossen et al. 1992), contains seven tetO elements located upstream of a minimal CMV promoter. The plasmid pRL-CMV (PROMEGA®, Madison, Wis., USA), in which the expression of Renilla luciferase is controlled by the CMV promoter, was used as an internal control to allow correction for differences in transfection efficiency.
C33A and HeLa X1/6 cells were grown in 2-cm^2 wells to 60% confluency and transfected by the calcium phosphate precipitation method (Das et al. 1999). C33A cells were transfected with 0.4 ng pCMV-rtTA (wild-type or mutant), 20 ng pLTR-2ΔtetO-luc or pCMV-7tetO-luc, 0.5 ng pRL-CMV, and 980 ng pBluescript as carrier DNA. HeLa X1/6 cells were transfected with 8 ng pCMV-rtTA, 2.5 ng pRL-CMV, and 990 ng pBluescript. The amount of the DNA constructs was optimized for each cell type to keep rtTA-mediated transactivation within the linear range and to avoid squelching of transcription factors. Cells were cultured for 48 hours in the presence of different concentrations of dox, Tc or Mc, and lysed in Passive Lysis Buffer (PROMEGA®). Firefly and Renilla luciferase activities were determined with the dual-luciferase reporter assay (PROMEGA®). The activity of the rtTA variants was calculated as the ratio of the firefly and Renilla luciferase activities, and corrected for between-session variation.
FIG. 2. Novel rtTA variants show increased activity and dox-sensitivity in different Tet systems. The transcriptional activity of rtTA variants was measured in C33A cells transfected with a plasmid carrying the firefly luciferase reporter gene under the control of the viral LTR-2ΔtetO promoter (LTR-2ΔtetO; A) or under the control of a minimal CMV-derived promoter coupled to seven tetO elements (CMV7-tetO; B). Furthermore, rtTA activity was measured in HeLa X1/6 cells (Baron et al. 1997) that contain a chromosomally integrated copy of the CMV-7tetO reporter construct (CMV7tetO-integrated; C, D). Variants V1 to V10 were compared in all three Tet systems (panels A-C) and variants V11 to V18 in the cells with the integrated reporter (panel D). Cells were transfected with the indicated rtTA expression plasmid or pBluescript as a negative control, and a plasmid constitutively expressing Renilla luciferase to correct for differences in transfection efficiency. Cells were cultured in the presence of different dox concentrations (0-1000 ng/ml). The ratio of the firefly and Renilla luciferase activities measured 2 days after transfection reflects the rtTA activity. All values were related to the wild-type (wt) rtTA activity at 1000 ng/ml dox, which was arbitrarily set at 100%. In (C and D), average values of three transfections are shown with error bars indicating the standard deviation.
FIG. 3. […]
A general note: In a reporter assay the amount or activity of a reporter protein is the signal.

Where [1] appears, read: listed as C68R V9I G138D F86Y A209T.
Setting [2] is: listed as S12G F67S V9I G138D F86Y A209T.

Entries after “also recorded” stand apart in the source; their conditions may differ.

B1: V9I C68R G138D F86Y A209T: rtTA variant with these amino acid substitutions (protein)
chain: MSRLDKSKIINSALELLNGVGIEGLTTRKLAQKLGVEQPTLYWHVKNKRALLDALPIEMLDRHHTHFRPLEGESWQDFLRNNAKSYRCALLSHRDGAKVHLGTRPTEKQYETLENQLAFLCQQGFSLENALYALSAVDHFTLGCVLEEQEHQVAKEERETPTTDSMPPLLRQAIELFDRQGAEPAFLFGLELIICGLEKQLKCESGGPTDALDDFDLDMLPADALDDFDLDMLPADALDDFDLDMLPG
On to B1, for which the “basal / background activity in the absence of inducer” value (“basal / background activity” below) is given as “no or low basal activity”. Under setting [1], the “rtTA activation by minocycline (Mc)” value was “particularly sensitive for minocycline; also recorded: very sensitive for minocycline”, the “rtTA activation by tetracycline (Tc)” value is “particularly sensitive for tetracycline; also recorded: very sensitive for tetracycline” and the “basal / background activity” value is given as “low background activity”.

B2: V9I G19M F67S G138D F86Y: rtTA variant with these amino acid substitutions (protein)
chain: MSRLDKSKIINSALELLNMVGIEGLTTRKLAQKLGVEQPTLYWHVKNKRALLDALPIEMLDRHHTHSCPLEGESWQDFLRNNAKSYRCALLSHRDGAKVHLGTRPTEKQYETLENQLAFLCQQGFSLENALYALSAVDHFTLGCVLEEQEHQVAKEERETPTTDSMPPLLRQAIELFDRQGAEPAFLFGLELIICGLEKQLKCESGGPADALDDFDLDMLPADALDDFDLDMLPADALDDFDLDMLPG
B2: the “basal / background activity” value was “no or low basal activity”.

B3: V9I E37Q G138D F86Y: rtTA variant with these amino acid substitutions (protein)
chain: MSRLDKSKIINSALELLNGVGIEGLTTRKLAQKLGVQQPTLYWHVKNKRALLDALPIEMLDRHHTHFCPLEGESWQDFLRNNAKSYRCALLSHRDGAKVHLGTRPTEKQYETLENQLAFLCQQGFSLENALYALSAVDHFTLGCVLEEQEHQVAKEERETPTTDSMPPLLRQAIELFDRQGAEPAFLFGLELIICGLEKQLKCESGGPADALDDFDLDMLPADALDDFDLDMLPADALDDFDLDMLPG
As for B3, the “basal / background activity” value is reported as “no or low basal activity”.

B4: V9I G19M G138D F86Y: rtTA variant with these amino acid substitutions (protein)
chain: MSRLDKSKIINSALELLNMVGIEGLTTRKLAQKLGVEQPTLYWHVKNKRALLDALPIEMLDRHHTHFCPLEGESWQDFLRNNAKSYRCALLSHRDGAKVHLGTRPTEKQYETLENQLAFLCQQGFSLENALYALSAVDHFTLGCVLEEQEHQVAKEERETPTTDSMPPLLRQAIELFDRQGAEPAFLFGLELIICGLEKQLKCESGGPADALDDFDLDMLPADALDDFDLDMLPADALDDFDLDMLPG
B4: the “basal / background activity” value is on record as “no or low basal activity”.

B5: V9I G19M F67S G138D F86Y A209T: rtTA variant with these amino acid substitutions (protein)
chain: MSRLDKSKIINSALELLNMVGIEGLTTRKLAQKLGVEQPTLYWHVKNKRALLDALPIEMLDRHHTHSCPLEGESWQDFLRNNAKSYRCALLSHRDGAKVHLGTRPTEKQYETLENQLAFLCQQGFSLENALYALSAVDHFTLGCVLEEQEHQVAKEERETPTTDSMPPLLRQAIELFDRQGAEPAFLFGLELIICGLEKQLKCESGGPTDALDDFDLDMLPADALDDFDLDMLPADALDDFDLDMLPG
On to B5, for which the “rtTA activation by minocycline (Mc)” value is “particularly sensitive for minocycline”, the “rtTA activation by tetracycline (Tc)” value is “particularly sensitive for tetracycline” and the “basal / background activity” value is given as “no or low basal activity”.

B6: V9I S12G F67S G138D F86Y A209T: rtTA variant with these amino acid substitutions (protein)
chain: MSRLDKSKIINGALELLNGVGIEGLTTRKLAQKLGVEQPTLYWHVKNKRALLDALPIEMLDRHHTHSCPLEGESWQDFLRNNAKSYRCALLSHRDGAKVHLGTRPTEKQYETLENQLAFLCQQGFSLENALYALSAVDHFTLGCVLEEQEHQVAKEERETPTTDSMPPLLRQAIELFDRQGAEPAFLFGLELIICGLEKQLKCESGGPTDALDDFDLDMLPADALDDFDLDMLPADALDDFDLDMLPG
Consider B6, for which the “basal / background activity” value is given as “no or low basal activity”. In addition, under setting [2], the “rtTA activation by minocycline (Mc)” value is reported as “particularly sensitive for minocycline; also recorded: very sensitive for minocycline”, the “rtTA activation by tetracycline (Tc)” value was “very sensitive for tetracycline” and the “basal / background activity” value is listed as “low background activity”. Besides, where the note is “listed as 512G F67S V9I G138D F86Y A209T”, the “rtTA activation by tetracycline (Tc)” value is recorded as “particularly sensitive for tetracycline”.

B7: V9I E37Q G138D F86Y A209T: rtTA variant with these amino acid substitutions (protein)
chain: MSRLDKSKIINSALELLNGVGIEGLTTRKLAQKLGVQQPTLYWHVKNKRALLDALPIEMLDRHHTHFCPLEGESWQDFLRNNAKSYRCALLSHRDGAKVHLGTRPTEKQYETLENQLAFLCQQGFSLENALYALSAVDHFTLGCVLEEQEHQVAKEERETPTTDSMPPLLRQAIELFDRQGAEPAFLFGLELIICGLEKQLKCESGGPTDALDDFDLDMLPADALDDFDLDMLPADALDDFDLDMLPG
In the case of B7, the “rtTA activation by minocycline (Mc)” value is recorded as “particularly sensitive for minocycline”, the “rtTA activation by tetracycline (Tc)” value is reported as “particularly sensitive for tetracycline” and the “basal / background activity” value is on record as “no or low basal activity”.

B8: V9I S12G F67S G138D F86Y: rtTA variant with these amino acid substitutions (protein)
chain: MSRLDKSKIINGALELLNGVGIEGLTTRKLAQKLGVEQPTLYWHVKNKRALLDALPIEMLDRHHTHSCPLEGESWQDFLRNNAKSYRCALLSHRDGAKVHLGTRPTEKQYETLENQLAFLCQQGFSLENALYALSAVDHFTLGCVLEEQEHQVAKEERETPTTDSMPPLLRQAIELFDRQGAEPAFLFGLELIICGLEKQLKCESGGPADALDDFDLDMLPADALDDFDLDMLPADALDDFDLDMLPG
As for B8, the “basal / background activity” value is on record as “no or low basal activity”.

B9: V9I G19M G138D F86Y A209T: rtTA variant with these amino acid substitutions (protein)
chain: MSRLDKSKIINSALELLNMVGIEGLTTRKLAQKLGVEQPTLYWHVKNKRALLDALPIEMLDRHHTHFCPLEGESWQDFLRNNAKSYRCALLSHRDGAKVHLGTRPTEKQYETLENQLAFLCQQGFSLENALYALSAVDHFTLGCVLEEQEHQVAKEERETPTTDSMPPLLRQAIELFDRQGAEPAFLFGLELIICGLEKQLKCESGGPTDALDDFDLDMLPADALDDFDLDMLPADALDDFDLDMLPG
As to B9, the “rtTA activation by minocycline (Mc)” value was “particularly sensitive for minocycline”, the “rtTA activation by tetracycline (Tc)” value is “particularly sensitive for tetracycline” and the “basal / background activity” value is “no or low basal activity”.
